The values that follow come from the RNAGym collection of RNA variant scans (doi:10.1093/molbev/msab373).

The labels stand for the following.
B1: Azoarcus group I ribozyme (parent)
chain: GUGCCUUGCGCCGGGAAACCACGCAAGGGAUGGUGUCAAAUUCGGCGAAACCUAAGCGCCCGCCCGGGCGUAUGGCAACGCCGAGCCAAGCUUCGGCGCCUGCGCCGAUGAAGGUGUAGAGACUAGACGGCACCCACCUAAGGCAAACGCUAUGGUGAAGGCAUAGUCCAGGGAGUGGCGAAAGUCACACAAACCGG

This data set covers variants of B1. Put plainly: reverse-splicing fitness (ratio to wild type); higher = more active; in vitro selection; Mg2+ level not given. Summed up: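 An in vitro group I ribozyme library with randomized positions was T7-transcribed and gel-purified. In triplicate, 10 pmol RNA in EPPS pH 7.5 was reacted with 50 pmoles of a 30-nt RNA substrate for 1 h at 37 °C across several added MgCl2 levels (1–48 mM), then stopped with EDTA. Products were reverse transcribed from a substrate-complementary primer, PCR-amplified and sequenced (HiSeq 4000). Fitness is a variant's read proportion after selection over that before, normalised to wild type.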
For GUGCCUUGCGCCGGGAAACCACGCAAGGGAUGGUGUCAAAUUCGGCGAAACCUAAGCGCCCGCCCGGGCGUAUGGCAACGCGGAGCCAAGCUUCGGCGCCUGCGCCGAUGAAGGUGUAGAGACUAGACGGCACCCACCUAAGGCUAACGCUAUGGUGAAGGCAUAGUCAAGGGAGUGGCGAAAGUCACACAAACCGG [C82G A145U C169A], the reverse-splicing fitness was 0.00844.

As for GUGCCUUGCGCCGGGAAACCACGCAAGGGAUGGUGUCAAAUUCGGCGAAACCUAAGCGCCCGCCCGGGCGUAUGGCAACGCCGAGCCAAGCUUCGGCGCCUGCGCCGAUGGAGGUGUAGUGACUAGACGGCACCCACCUAAGGCCAACGCUAUGGUGAAGGCAUAGUCCAGGGAGCGGCGAAAGUCACACAAACCGG [A111G A120U A145C U176C], the reverse-splicing fitness was 0.214.

As to GUGCCUUGCGCCGGGAAACCACGCAAGGGAUGGUGUCAAAUUCGGCGAAACCUAAGCGCCCGCCCGGGCGUAUGGCAACGCGGAGCCAAGCUUCGGCGCCUGCGCCGAUGUAGGUGUAGAGACUAGACGGCACCCACCUAAGGCCAACGCUAUGGUGAAGGCAUAGUCGAGGGAGGGGCGAAAGUCACACAAACCGG [C82G A111U A145C C169G U176G], the reverse-splicing fitness was determined as 0.00528.

As to GUGCCUUGCGCCGGGAAACCACGCAAGGGAUGGUGUCAAAUUCGGCGAAACCUAAGCGCCCGCCCGGGCGUAUGGCAACGCUGAGCCAAGCUUCGGCGCCUGCGCCGAUGGAGGUGUAGAGACUAGACGGCACCCACCUAAGGCCAACGCUAUGGUGAAGGCAUAGUCUAGGGAGUGGCGAAAGUCACACAAACCGG [C82U A111G A145C C169U], the reverse-splicing fitness came out at 0.00982.

For GUGCCUUGCGCCGGGAAACCACGCAAGGGAUGGUGUCAAAUUCGGCGAAACCUAAGCGCCCGCCCGGGCGUAUGGCAACGCUGAGCCAAGCUUCGGCGCCUGCGCCGAUGUAGGUGUAGGGACUAGACGGCACCCACCUAAGGCUAACGCUAUGGUGAAGGCAUAGUCAAGGGAGCGGCGAAAGUCACACAAACCGG [C82U A111U A120G A145U C169A U176C], the reverse-splicing fitness turned out to be 0.0101.

Take GUGCCUUGCGCCGGGAAACCACGCAAGGGAUGGUGUCAAAUUCGGCGAAACCUAAGCGCCCGCCCGGGCGUAUGGCAACGCGGAGCCAAGCUUCGGCGCCUGCGCCGAUGAAGGUGUAGUGACUAGACGGCACCCACCUAAGGCUAACGAUAUGGUGAAGGCAUAGUCUAGGGAGCGGCGAAAGUCACACAAACCGG [C82G A120U A145U C150A C169U U176C]: the reverse-splicing fitness amounted to 0.0022.

In the case of GUGCCUUGCGCCGGGAAACCACGCAAGGGAUGGUGUCAAAUUCGGCGAAACCUAAGCGCCCGCCCGGGCGUAUGGCAACGCGGAGCCAAGCUUCGGCGCCUGCGCCGAUGGAGGUGUAGAGACUAGACGGCACCCACCUAAGGCCAACGAUAUGGUGAAGGCAUAGUCAAGGGAGCGGCGAAAGUCACACAAACCGG [C82G A111G A145C C150A C169A U176C], the reverse-splicing fitness is 0.00683.

Regarding GUGCCUUGCGCCGGGAAACCACGCAAGGGAUGGUGUCAAAUUCGGCGAAACCUAAGCGCCCGCCCGGGCGUAUGGCAACGCUGAGCCAAGCUUCGGCGCCUGCGCCGAUGAAGGUGUAGUGACUAGACGGCACCCACCUAAGGCUAACGGUAUGGUGAAGGCAUAGUCGAGGGAGGGGCGAAAGUCACACAAACCGG [C82U A120U A145U C150G C169G U176G], the reverse-splicing fitness came out at 0.00173.

Take GUGCCUUGCGCCGGGAAACCACGCAAGGGAUGGUGUCAAAUUCGGCGAAACCUAAGCGCCCGCCCGGGCGUAUGGCAACGCAGAGCCAAGCUUCGGCGCCUGCGCCGAUGCAGGUGUAGAGACUAGACGGCACCCACCUAAGGCCAACGAUAUGGUGAAGGCAUAGUCCAGGGAGUGGCGAAAGUCACACAAACCGG [C82A A111C A145C C150A]: the reverse-splicing fitness worked out at 0.0144.

Turning to GUGCCUUGCGCCGGGAAACCACGCAAGGGAUGGUGUCAAAUUCGGCGAAACCUAAGCGCCCGCCCGGGCGUAUGGCAACGCCGAGCCAAGCUUCGGCGCCUGCGCCGAUGAAGGUGUAGCGACUAGACGGCACCCACCUAAGGCCAACGUUAUGGUGAAGGCAUAGUCAAGGGAGUGGCGAAAGUCACACAAACCGG [A120C A145C C150U C169A], the reverse-splicing fitness came out at 0.0127.

Regarding GUGCCUUGCGCCGGGAAACCACGCAAGGGAUGGUGUCAAAUUCGGCGAAACCUAAGCGCCCGCCCGGGCGUAUGGCAACGCCGAGCCAAGCUUCGGCGCCUGCGCCGAUGAAGGUGUAGUGACUAGACGGCACCCACCUAAGGCAAACGGUAUGGUGAAGGCAUAGUCCAGGGAGGGGCGAAAGUCACACAAACCGG [A120U C150G U176G], the reverse-splicing fitness was determined as 0.0108.

In the case of GUGCCUUGCGCCGGGAAACCACGCAAGGGAUGGUGUCAAAUUCGGCGAAACCUAAGCGCCCGCCCGGGCGUAUGGCAACGCCGAGCCAAGCUUCGGCGCCUGCGCCGAUGCAGGUGUAGUGACUAGACGGCACCCACCUAAGGCAAACGGUAUGGUGAAGGCAUAGUCCAGGGAGCGGCGAAAGUCACACAAACCGG [A111C A120U C150G U176C], the reverse-splicing fitness came out at 0.0217.

Consider GUGCCUUGCGCCGGGAAACCACGCAAGGGAUGGUGUCAAAUUCGGCGAAACCUAAGCGCCCGCCCGGGCGUAUGGCAACGCCGAGCCAAGCUUCGGCGCCUGCGCCGAUGCAGGUGUAGAGACUAGACGGCACCCACCUAAGGCAAACGAUAUGGUGAAGGCAUAGUCCAGGGAGAGGCGAAAGUCACACAAACCGG [A111C C150A U176A], for which the reverse-splicing fitness amounted to 0.12.

Regarding GUGCCUUGCGCCGGGAAACCACGCAAGGGAUGGUGUCAAAUUCGGCGAAACCUAAGCGCCCGCCCGGGCGUAUGGCAACGCUGAGCCAAGCUUCGGCGCCUGCGCCGAUGAAGGUGUAGGGACUAGACGGCACCCACCUAAGGCUAACGAUAUGGUGAAGGCAUAGUCGAGGGAGCGGCGAAAGUCACACAAACCGG [C82U A120G A145U C150A C169G U176C], the reverse-splicing fitness turned out to be 0.0133.

For the variant GUGCCUUGCGCCGGGAAACCACGCAAGGGAUGGUGUCAAAUUCGGCGAAACCUAAGCGCCCGCCCGGGCGUAUGGCAACGCUGAGCCAAGCUUCGGCGCCUGCGCCGAUGUAGGUGUAGGGACUAGACGGCACCCACCUAAGGCUAACGAUAUGGUGAAGGCAUAGUCUAGGGAGAGGCGAAAGUCACACAAACCGG [C82U A111U A120G A145U C150A C169U U176A], the reverse-splicing fitness was found to be 0.0203.
